Measured values: patent US20030004317A1 (GlaxoSmithKline, published 2003)

B1: murine monoclonal antibody B9 (antibody, mouse IgG1, V domains shown)
VH: QVQLQQSGAELMKPGASVKISCKATGYTFSSYWIEWVKQRPGHGLEWIGEILPRSGNTNYNEKFKGKATFTAETSSNTAYMQLSSLTPEDSAVYYCSSRGVRGSMDYWGQGTSVTVSS
VL: DIQMTQTTSSLSASLGDRVTITCRSSQDISNFLNWYQQKPDGTVKLLIYYTSTLHSGVPSRFSGSGSGTDYSLTISNLEQEDIATYFCQQGNTLPWTFGGGTNLEIKR
notes: also called mAb B9; Murine B9
B2: murine monoclonal antibody D12 (antibody, V domains shown)
VH: EIQLQQSGPEVVKPGASVKVSCKASGYAFTSYNMYWVKQSHGKSLEWIGYIDPYNGDTFYNQKFKGKATLTVDKSSSTAYMHLNSLTSEDSAVFYCARQNYGSFAYWGQGTLVTVSA
VL: DIVLTQSPATLSVTPGDSVSLSCRASQSISNHLHWYQQRSHESPRLLIKYASQSISGIPSRFRGSGSGTDFTLNINILETEDFGMYFCQQSNSWPFTFGSGTNLEIKR

Key:
[1] = target: native cell surface receptor on R-SMC; assay: cell-based or functional assay
[2] = target: T1, human αvβ3 receptor protein purified from human placenta (human, UniProt P06756 31-1048; P05106 27-788); assay: BIAcore, receptor immobilized in a hybrid bilayer membrane, mAb in solution
T1 construct: mature; Detergent-solubilised whole heterodimer from tissue; coated on plates (ELISA), inserted in a hybrid bilayer membrane or passed in solution (BIAcore); also called vitronectin receptor; αβ3 receptor
T1 sequence (P06756 31-1048, form in doubt, chain 1 of 2): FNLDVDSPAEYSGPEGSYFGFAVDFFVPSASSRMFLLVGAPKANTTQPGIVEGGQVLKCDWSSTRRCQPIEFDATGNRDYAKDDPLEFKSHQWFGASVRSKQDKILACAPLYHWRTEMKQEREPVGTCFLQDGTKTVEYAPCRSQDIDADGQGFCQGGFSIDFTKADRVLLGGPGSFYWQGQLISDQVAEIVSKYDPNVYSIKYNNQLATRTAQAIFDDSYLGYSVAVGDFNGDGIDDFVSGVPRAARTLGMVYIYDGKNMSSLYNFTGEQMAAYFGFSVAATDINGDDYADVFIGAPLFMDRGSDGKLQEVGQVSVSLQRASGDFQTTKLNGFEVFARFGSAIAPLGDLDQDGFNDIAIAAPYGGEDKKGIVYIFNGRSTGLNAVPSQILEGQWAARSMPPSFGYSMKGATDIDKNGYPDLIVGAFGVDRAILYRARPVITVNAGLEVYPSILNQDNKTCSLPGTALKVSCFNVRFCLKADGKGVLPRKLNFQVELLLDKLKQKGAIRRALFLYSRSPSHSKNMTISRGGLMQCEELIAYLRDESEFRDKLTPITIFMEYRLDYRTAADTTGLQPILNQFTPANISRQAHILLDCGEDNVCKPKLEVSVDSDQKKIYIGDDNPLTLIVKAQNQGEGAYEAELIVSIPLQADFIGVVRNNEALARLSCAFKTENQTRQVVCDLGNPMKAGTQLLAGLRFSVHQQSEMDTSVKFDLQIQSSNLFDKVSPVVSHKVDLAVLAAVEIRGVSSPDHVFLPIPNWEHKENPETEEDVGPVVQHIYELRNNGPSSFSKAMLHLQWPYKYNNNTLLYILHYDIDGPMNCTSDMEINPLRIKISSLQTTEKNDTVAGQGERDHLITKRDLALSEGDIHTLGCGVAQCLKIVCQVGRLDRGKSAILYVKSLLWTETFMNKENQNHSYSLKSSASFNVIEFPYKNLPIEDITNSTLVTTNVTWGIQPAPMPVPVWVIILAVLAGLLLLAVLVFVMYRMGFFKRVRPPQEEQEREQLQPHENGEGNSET
T1 sequence (P05106 27-788, form in doubt, chain 2 of 2): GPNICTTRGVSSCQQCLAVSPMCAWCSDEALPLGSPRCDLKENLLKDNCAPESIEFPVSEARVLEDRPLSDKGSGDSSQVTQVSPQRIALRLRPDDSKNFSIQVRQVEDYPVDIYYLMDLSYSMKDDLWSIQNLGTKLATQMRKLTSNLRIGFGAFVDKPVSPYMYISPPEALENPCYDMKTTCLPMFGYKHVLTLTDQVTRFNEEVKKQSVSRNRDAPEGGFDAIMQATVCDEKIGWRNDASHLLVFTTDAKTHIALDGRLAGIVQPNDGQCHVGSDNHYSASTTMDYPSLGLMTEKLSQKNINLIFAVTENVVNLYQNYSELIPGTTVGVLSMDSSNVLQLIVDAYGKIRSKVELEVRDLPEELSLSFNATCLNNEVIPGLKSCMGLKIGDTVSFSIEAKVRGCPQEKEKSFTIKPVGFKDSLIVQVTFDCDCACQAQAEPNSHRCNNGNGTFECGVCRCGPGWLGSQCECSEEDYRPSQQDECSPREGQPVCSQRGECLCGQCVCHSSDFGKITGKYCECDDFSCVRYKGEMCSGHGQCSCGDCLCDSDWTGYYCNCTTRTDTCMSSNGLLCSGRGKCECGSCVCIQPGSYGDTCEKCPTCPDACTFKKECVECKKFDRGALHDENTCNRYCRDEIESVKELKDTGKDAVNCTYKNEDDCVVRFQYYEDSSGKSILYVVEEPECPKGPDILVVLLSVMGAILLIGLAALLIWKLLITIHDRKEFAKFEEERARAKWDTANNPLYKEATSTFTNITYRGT
Procedure: (§1) The receptors was immobilized by inserting it into a phospholipid vesicle and producing a hybrid bilayer membrane on a hydrophobic sensor surface. […] Samples of the mAb were passed over this surface and the rates at which they bound and then dissociated from the surface were measured and analyzed using software provided with the instrument.

[3] = target: T2, human αvβ5 receptor protein purified from human placenta (human, UniProt P06756 31-1048; P18084 24-799); assay: BIAcore, receptor immobilized in a hybrid bilayer membrane, mAb in solution (100, 25, 6 nM)
T2 construct: mature; Detergent-solubilised whole heterodimer from tissue
T2 sequence (P06756 31-1048, form in doubt, chain 1 of 2): as the sequence (P06756 31-1048, form in doubt, chain 1 of 2) above
T2 sequence (P18084 24-799, form in doubt, chain 2 of 2): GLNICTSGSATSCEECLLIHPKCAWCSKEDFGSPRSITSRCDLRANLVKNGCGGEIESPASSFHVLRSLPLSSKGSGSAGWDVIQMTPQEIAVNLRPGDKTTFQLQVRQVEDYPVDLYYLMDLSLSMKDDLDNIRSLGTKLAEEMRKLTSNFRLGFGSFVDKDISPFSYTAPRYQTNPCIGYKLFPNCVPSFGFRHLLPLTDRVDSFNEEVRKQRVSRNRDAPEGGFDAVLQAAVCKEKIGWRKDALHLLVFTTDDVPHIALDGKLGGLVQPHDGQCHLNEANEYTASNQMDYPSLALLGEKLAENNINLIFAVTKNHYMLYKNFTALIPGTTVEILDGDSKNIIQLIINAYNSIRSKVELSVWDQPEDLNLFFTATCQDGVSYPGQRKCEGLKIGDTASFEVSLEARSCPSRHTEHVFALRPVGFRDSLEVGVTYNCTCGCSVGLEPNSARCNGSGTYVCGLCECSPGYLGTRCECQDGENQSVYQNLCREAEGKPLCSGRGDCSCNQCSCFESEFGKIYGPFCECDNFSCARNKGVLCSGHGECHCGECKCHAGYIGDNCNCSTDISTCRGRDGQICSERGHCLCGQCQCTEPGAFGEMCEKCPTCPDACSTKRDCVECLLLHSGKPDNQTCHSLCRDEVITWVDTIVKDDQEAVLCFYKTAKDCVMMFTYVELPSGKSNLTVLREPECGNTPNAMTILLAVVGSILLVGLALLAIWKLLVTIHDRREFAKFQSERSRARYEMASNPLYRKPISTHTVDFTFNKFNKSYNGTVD
Procedure: as §1

[4] = target: T1, human αvβ3 receptor protein purified …; assay: as above
Procedure: as §1

| Molecule | Inhib (%) R-SMC (50 µg/ml) [1] [%] | fold higher binding affinity (KD) than D12 [2] [fold] | Kd [3] [nM] | Kd [4] [nM] |
| --- | --- | --- | --- | --- |
| murine monoclonal antibody LM609 | 43 | – | – | – |
| B1 | – | ~5 | 0.11 | 0.29 |
| B2 | 66 | – | – | 1.3 |
